The source of these data is article PMC12445699.

Assay [1] has as its target H3.3S31ph-nucleosome (H3.3-nucleosome with Ser31 phosphorylation) (UniProt P84243).
A further assay deals with H3.3S31E-nucleosome (UniProt P84243).
The target in a further assay is H3.3S31A-nucleosome (UniProt P84243).
The target in assay [2] is H3-nucleosome (mono-nucleosome with canonical H3) (UniProt P84233).
The target in assay [3] is H3.3-nucleosome (mono-nucleosome with the variant H3.3) (UniProt P84243).

For the substance “FACT (Facilitates Chromatin Transcription) complex (from UniProt Q9Y5B9 1-1047; Q08945 1-709)”, the force of disruption in the first stretching cycle in the presence of FACT; no transitions in later cycles (magnetic tweezers) in assay [1] is 13.9 pN. Moreover, the rupture force at which the nucleosome is completely disrupted in the presence of FACT (magnetic tweezers) with H3.3S31E-nucleosome is 25.4 pN; with H3.3S31A-nucleosome, 25.4 pN; in assay [2], 6.7 pN; in assay [3] it was 24.5 pN.
